Laboratory results taken from a protein production outcome set (Wang et al. 2014).

Experiment: label from the status in PepcDB records
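Further: failed if final PepcDB status was selected cloned or expressed and not failed if soluble or beyond.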

Q: Which protein production does the source give for “MSDALSAIPAAVHRNLSDKLYEKRKNAALELENIVKNLTSSGDHDKISKVIEMLIKEFAKSPQANHRKGGLIGLAAVTVGLSTEAAQYLEQIVPPVINSFSDQDSRVRYYACEALYNIAKVVRGDFIIFFNKIFDALCKLSADSDANVQSAAHLLDRLVKDIVTESDQFSIEEFIPLLKERMNVLNPYVRQFLVGWITVLDSVPDIDMLGFLPDFLDGLFNMLSDSSHEIRQQADSALSEFLQEIKNSPSVDYGRMAEILVQRAASPDEFTRLTAITWINEFVKLGGDQLVRYYADILGAILPCISDKEEKIRVVARETNEELRSIHVEPSDGFDVGAILSVARRQLSSEFEATRIEALNWISTLLNKHRTEVLCFLNDIFDTLLKALSDSSDDVVLLVLEVHAGVAKDPQHFRQLIVFLVHNFRADNSLLERRGALIVRRMCVLLDAERVYRELSTILEGEDNLDFASTMVQALNLILLTSPELSKLRELLKGSLVNREGKELFVALYTSWCHSPMAIISLCLLAQAYQHASVVIQSLVEEDINVKFLVQLDKLIRLLETPIFTYLRLQLLEPGRYTWLLKTLYGLLMLLPQQSAAFKILRTRLKTVPTYSFSTGNQIGRATSGVPFSQYKHQNEDGDLEDDNINSSHQGINFAVRLQQFENVQNLHRGQARTRVNYSYHSSSSSTSKEVRRSEEQQQQQQQQQQQQQQQQRPPPSSTSSSVADNNRPPSRTSRKGPGQLQL” here?
A: The protein production was “not failed”.

Q: With “MSDAQDSRVGSMFGPYHLKRLLGRGGMGEVYEAEHTVKEWTVAVKLMTAEFSKDPVFRERMKREARIAGRLQEPHVVPIHDYGEVDGQMFLEMRLVEGTDLDSVLKRFGPLTPPRAVAIITQIASALDAAHADGVMHRDVKPQNILITRDDFAYLVDFGIASATTDEKLTQLGTAVGTWKYMAPERFSNDEVTYRADIYALACVLHECLTGAPPYRADSAGTLVSSHLMGPIPQPSAIRPGIPKAFDAVVARGMAKKPEDRYASAGDLALAAHEALSDPDQDHAADILRRSQESTLPGTAAVTAQPPTMPTVTPPPIQAAPTGQPSWAPNSGPMPASGPTPTPQYYQGGGWGAPPSGGPSPWAQTPRKTNPWPFVAGAAAVVLVLVLGAIGIWIAIRPKPVQPPQPVAEERLSALLLNSSEVNAVMGSSSMQPGKPITSMDSSPVTVSLPDCQGALYTSQDPVYAGTGYTAINGLISSEPGDNYEHWVNQAVVAFPTADKARAFVQTSADKWKNCAGKTVTVTNKAKTYRWTFADVKGSPPTITVIDTQEGAEGWECQRAMSVANNVVVDVNACGYQITNQAGQIAAKIVDKVNKE” as the sequence, how does the protein production read?
A: Its protein production is “failed”.

Q: Which protein production does the source give for “MSDATNNAVLVRNLSPEVTKQTLLDFFSFCGEISAVKIRPSVGEGGSSSSGSPTEAMEALVIFENQSAKKTALVLDSATLKKRKISVMDATEELVSSFKDVREVDLARDSTDVPETATARQERLQGLREEFDRAIKRASDKLSDFNEKHRITEKVQEFGDLTKRKTQEINEQYRLTERAREGWQTVREKTRELDERLHLSESARDGWRSLKASVSKIMQKDRGGEVDKA” here?
A: Its protein production is “not failed”.

Q: Which protein production does the source give for “MSDFWENELVEIAAYYSVAVLCLVLFLTVFELVTAYKNWEEIQKGNLAVAMATGGKILGIANVFQHSISQHNSLLQMIGWGVYGFVMLLISYFIFEFLTPRFKIDQEIENDNRAVGFISFVISVGLSFVVAAGI” here?
A: Its protein production is “failed”.

Q: For “MSDHPGPGAVTPELFGVGGDWLAVTAGESGASVFRAADATRYAKCVPAADAAGLEAERDRIAWLSGQGVPGPRVLDWYAGDAGACLVTRAVPGVPADRVGADDLRTAWGAVADAVRRLHEVPVASCPFRRGLDSVVDAARDVVARGAVHPEFLPVEQRLVPPAELLARLTGELARRRDQEAADTVVCHGDLCLPNIVLHPETLEVSGFIDLGRLGAADRHADLALLLANARETWVDEERARFADAAFAERYGIAPDPERLRFYLHLDPLTWG”, which protein production is on record?
A: The protein production was “failed”.

Q: For “MSDHRPAARPWANRRRTIMSTTTLPGSTVATLTVTTPSDREVQITRIFDASRPMVFDCWTIPELLKGWLHGPDGWRLAICEIDLRVGGATRYVWQHRDGRSMGMSGAYREIVRPARIVATELFDEDWTGGETVGTVVFTEQAGKTLLTQTVLYASQAARDGALGTGMTRGMGESYAQLDAYLISLQDAAKGAA”, which protein production is on record?
A: Its protein production is “failed”.

Q: For “MSDILKFSVVIPVYNGSNTVTRAVDSCLKQTTLPWEIIIVNDCSKDNTLDVLIENYQGNNIVKIYSLPKNSGVSVARNLGWDKATGDFIAFLDADDVWHPSKLEVLNELKHGYKDVSCIAHKYTENSLPEEKKIMPKCKILKFRHFLIRNYFNTSCLAVCKCIGERFNETMRYTEDHDLCLRIANKMNIYYIDLPLTSLGRPQLSKGGLSGNQWAMRKGEMKLYFHACKLRWWLFPCLPLFFLFSIAKHLLKLGMRCMK”, which protein production is on record?
A: The protein production was “failed”.

Q: For “MSDKKTQTRARILGAATQALLERGAVEPSVGEVMGAAGLTVGGFYAHFQSKDALMLEAFEQLLGKRRELLGELDPGLSGKERRALAAAFYLSRKHRDAQVDAGCPLPATLAEVARLPEGFREVLSRHVEIMVTSLAESPEETDVALADLVLMIGGLALARALGPGELSDRVLRAAKQAVN”, which protein production is on record?
A: The protein production was “not failed”.

Q: For “MSDLLFPIISMVLLVLAEAGVLQFTGRQKVDWLDVIFNINSGHMMLWLFRCLEVLCYGLVINHFSLGLFDNAPVILLWLFTILAWDFGFYWLHRWHHEMRPLWAVHVVHHQGEHYNLSLGVRNSWYSSLTSIPFFMLLAMLGVPLQIFLAVSIIHYSWQFFNHNALTPKLGWLEKVLITPSHHRVHHLNQKQYADTNYGGTFLLWDKLFGSYSAGPEYDVGYGVKNSRLSCNPMRESNLPFLRLMGFRSFGKAIEGRYQSSPWAVGAGVILLFMLVLGYIQQYGYGIEFITSEQAVLFVLLAAGSVALGGMSDGQHWGMILWCSVTLSLLYFIVYMCSWSTLLWKGLVGILLAHCLLFVIGVGRKSLRKQYEPV”, which protein production is on record?
A: The protein production was “failed”.

Q: With “MSDLRTVPKHTALLIGLMIFGLFFGAGNLIFPVELGRLAGHSAPVTAAGFLVTAVGIPIVAIISSAVSGCSSVHGMTSRVSSQYATIFTCLLYLTIGPAFAIPRTATVSYEVGVAPFIQGHGPALPIFTIVFFAMTLVAALKPGKLMDWVGRYLTPLFLALLAILIVATLIHPMPTVANRPPQPPYDHQPFMHGFLDGYNTMDALASLAFAIVIIEAINQRGSTGRRDVTHITIRAGLVATIPLTLVYVSLAWLGRTSTLVVPNAANGGVVLAGVSRHYYGTAGQVLIAAIVLVACLKTAIGLVVACAEIFRRMFPAGPSVRSWVVIFSVASAIIANAGLTTIIAWSTPVLMFLYPLAITAIILGLLDPWLGASRLPHRIMTGCVVLAALPDLVRALPIQGSGTRAITHVADMVLPWASDGLGWGLPAIIGLAAGWGASLILGRPRRWGTSS” as the sequence, how does the protein production read?
A: The protein production was “failed”.

Q: With “MSDNYKFFRHDNCEYFPCHKVKDKETFNCLFCYCPLYFLENCGGNKSDFNGVKDCSNCLIPHSKNGYDYIINKIREVNKEKRAKNNLTLEHHHHHH” as the sequence, how does the protein production read?
A: Its protein production is “not failed”.

Q: With “MSDPSAKPLQEHILIILDDAGRREVLLTETFYTIGRSPRADIRIKSQFVSRIHAVLVRKSSDDVQAAYRIIDGDEDGQSSVNGLMINGKKVQEHIIQTGDEIVMGPQVSVRYEYRRRDQFGTMPGNEQFDITLIDPGMIDDEEEIPTSVSSSPPEME” as the sequence, how does the protein production read?
A: The protein production was “failed”.

Q: Which protein production does the source give for “MSDPYPATEAHAQRAAKSPPKSLLDRLLSLVRREPEDREGIKAILEAAHERELLDAESYAMIKGALAVSERTVADIMVPRSRMDLLDISQPLPQLLATIIETAHSRFPVYEDDRDNIIGILLAKDLLRYMLEPALDIRSLVRPAVFIPEVKRLNVLLREFRASRNHLAIVIDEHGGISGLVTMEDVLEQIVGDIEDEFDEDEEESIFPEGENQWRLTASTDISHFNATFATDLPDDEYDSVGGWLGGQLGRIPRRGDSADHDGLHIEVVRADARRALWLRVRRNAGAQPPASAAE” here?
A: The protein production was “not failed”.

Q: Which protein production does the source give for “MSDQDVNPEHISDAQPAGTGLVLPGQTLPTTLYVIPIHNRPFFPAQVLPVIVNEEPWAETLELVAKTDHHSLALFFMDNPPEDPRHFDVNSLPEHGTLVRVHHASREGGKLQFVAQGLSRVRIRGWIKRHRPPFMVEVDYPKTPIDPSDEVKAYGMALINAIKELLPLNPLYSEELKNYLNRFSPNDPSPLTDFAAALTTAPGGELQEVLDTVPILKRMEKVLPLLRKEVEVARLQKELSAEVNRKIGEHQREFFLKEQLKIIQQELGITKDDKSADADEFRARLEGKVLPEQARKRIDEELNKLSILESGSPEYAVTRNYLDWATALPWGVYGKDKLDLKHARKVLDKHHAGLDDIKDRILEFLAVGSFKGEIAGSIVLLVGPPGVGKTSIGKSIAESLGRPFYRFSVGGMRDEAEIKGHRRTYIGALPGKLVQALKEVEVMNPVIMLDEIDKLGASYQGDPASALLETLDPEQNVEFLDHYLDLRLDLSKVLFVCTANTLDSIPGPLLDRMEVIRLSGYISEEKLAIAKRHLWPKQLEKAGVPKGRLSISDAALRAVIEGYAREAGVRQLEKQLGKLVRKSVVKLLEDPESKVKIGPRDLEDYLGMPVFRSEQVLSGIGVITGLAWTSMGGATLPIEATRIHTLNRGFKLTGQLGDVMKESAEIAYSYIGSHLKKYGGDPTFFDQAFVHLHVPEGATPKDGPSAGVTMASALLSLARNQVPKKGVAMTGELTLTGQVLPIGGVREKVIAARRQKIFELILPEANRGHFEELPDYLREGLTVHFAKRYGDVAKVLF” here?
A: Its protein production is “failed”.

Q: With “MSDRLGIFFSGLCFVHCLATPILLIFLGTNSLASVLETPLFHRLLLLPVLTMAIFQGYYAWKNPQAKLSRVLLPLGCLAVVIAQFFHGPIEILLTIIGSLTLISGHFFHLKHEHCADQN” as the sequence, how does the protein production read?
A: The protein production was “failed”.

Q: With “MSDSAIGVGYAADNPGWLIGMSETQERLQRLRAQAASLVFYAGILESATGRAFLELLDALSHQQPLAAVTAYSTWLGHLLASRQSWPQWLMHHIRSDDNPFSRQAQFAIASSLPEVWQQSACQDLQTLQQLASAPPRLLAPMVQALADLPTPPPHWLEETRDREAQWAETEDWAMLLPDLIQHYQQRGVGFFNRYWALRWQQGQLHGIEHPDPIPLSDLAGYELQKETLKRNTEFLLAGLPAQNVLLYGSCGAGKSSMVKALINAYGDRGLRLIEVGKADLRELPQILDQLRESALSFIVFVDDLSFEEDDETFKALKVVLEGGLTARPPNVVVYATSNRRHLVREYFDERPNPTEANEVHAWDSVQEKLSFSDRFGLTLTFEPADQDTYLAIVRHLASEVGLTMPLETLEFRARQWATRHNGRSGRTARQFMDWLIAEQSLPNPL” as the sequence, how does the protein production read?
A: The protein production was “failed”.

Q: Which protein production does the source give for “MSDSLVVCEVDPELKETLRKFRFRKETNNAAIIMKVDKDRQMVVLEDELQNISPEELKLELPERQPRFVVYSYKYVHDDGRVSYPLCFIFSSPVGCKPEQQMMYAGSKNRLVQTAELTKVFEIRTTDDLTETWLKEKLAFFR” here?
A: The protein production was “not failed”.

Q: For “MSDTLRPYKNLFPGIGQRVMIDTSSVVIGDVRLADDVGIWPLVVIRGDVNYVAIGARTNIQDGSVLHVTHKSSSNPHGNPLIIGEDVTVGHKVMLHGCTIGNRVLVGMGSIVLDGAIIEDDVMIGAGSLVPQHKRLESGYLYLGSPVKQIRPLSDAERSGLQYSANNYVKWKDDYLSQDNHIQP”, which protein production is on record?
A: Its protein production is “not failed”.

Q: For “MSDTNSGGGRQAASGPAPRGRLPFRRRVALVAVARPLIVTVGLVTAYYLLPLDERLSAGTLVSLVCGLLAVLLVFCWEVRAITRSPHPRLRAIEGLAATLVLFLVLFAGSYYLLGRSAPGSFSEPLNRTDALYFTLTTFATVGFGDITARSETGRILTMAQMTGGLLLVGVAARVLASAVQAGLHRQGRGPAASPRSGAAEEPEAGP”, which protein production is on record?
A: Its protein production is “failed”.
